Consider four substances from PMC11667166.

Like-named read-outs stand apart in the source and are kept apart here.

CD320: N126Q: where the note is “N-glycosylation at N126”, the localisation_or_trafficking entry is “no change”.

As to CD320: N126Q/N195Q/N213Q (QQQ), the localisation_or_trafficking result was “no change” (N-glycosylation at N126), “no change” (N-glycosylation at N195) and “no change” (N-glycosylation at N213).

On to CD320: N195Q, for which, where the note is “N-glycosylation at N195”, the localisation_or_trafficking result is recorded as “no change”.

With CD320: N213Q, the localisation_or_trafficking result (N-glycosylation at N213) is given as “no change”.
